We go through 9 molecules from patent publication US11844843 (DYNE THERAPEUTICS, dated 2023).

The target of experiment [1] is T1, recombinant human TfR1 (transferrin receptor protein 1) (human, UniProt P02786 89-760).
T1 construct: Recombinant protein in SPR and ELISA; they were assigned to this molecule; also called hTfR1; huTfR1
As to the kind of experiment: Avg KD, antibody alone; method not stated in Table 11.

In experiment [2] the target is T2, recombinant cynomolgus monkey (Macaca fascicularis) TfR1 (cynomolgus monkey (Macaca fascicularis), UniProt Q5RDH6 87-760 (Pongo abelii entry), limits assumed).
T2 construct: Recombinant protein; also called cTfR1; cyTfR1
T2 chain: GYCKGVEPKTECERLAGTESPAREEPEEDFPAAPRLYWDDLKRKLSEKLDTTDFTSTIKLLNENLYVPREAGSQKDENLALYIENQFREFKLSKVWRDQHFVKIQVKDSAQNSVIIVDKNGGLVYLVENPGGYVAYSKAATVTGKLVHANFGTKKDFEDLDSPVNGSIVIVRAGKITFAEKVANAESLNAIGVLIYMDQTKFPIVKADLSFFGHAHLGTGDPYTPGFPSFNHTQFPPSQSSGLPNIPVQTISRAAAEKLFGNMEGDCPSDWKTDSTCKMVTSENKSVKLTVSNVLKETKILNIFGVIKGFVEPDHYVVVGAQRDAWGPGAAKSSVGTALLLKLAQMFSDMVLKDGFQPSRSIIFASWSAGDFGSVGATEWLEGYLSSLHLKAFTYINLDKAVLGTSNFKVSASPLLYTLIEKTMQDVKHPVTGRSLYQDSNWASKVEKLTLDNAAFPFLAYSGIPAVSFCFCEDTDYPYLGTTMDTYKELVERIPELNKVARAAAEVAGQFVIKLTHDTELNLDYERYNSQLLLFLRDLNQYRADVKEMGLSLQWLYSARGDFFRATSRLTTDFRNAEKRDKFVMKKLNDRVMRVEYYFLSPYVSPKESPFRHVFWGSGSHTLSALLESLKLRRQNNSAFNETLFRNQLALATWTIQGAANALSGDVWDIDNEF
Described as above.

For experiment [3], the target named is T1, recombinant human TfR1 (transferrin …). In words: Carterra LSA SPR, 25 C; IgG captured, hTfR1 as analyte; 1:1 fit. As for the experimental part:
Selected anti-TfR1 antibodies were tested for their binding affinity to human TfR1 for measurement of Ka (association rate constant). Kd (dissociation rate constant), and K_D (affinity). […] The binding experiment was performed on Carterra LSA at 25° C. An anti-mouse IgG and anti-human IgG antibody "lawn" was prepared on a HC30M chip by amine coupling. The IgGs were captured on the chip. Dilution series of hTfR1, cyTfR1, and hTfR2 were injected to the chip for binding (starting from 1000 nM, 1:3 dilution, 8 concentrations).
Binding data were referenced by subtracting the responses from a buffer analyte injection and globally fitting to a 1:1 Langmuir binding model for estimate of Ka (association rate constant), Kd (dissociation rate constant), and K_D (affinity) using the Carterra™ Kinetics software, 5-6 concentrations were used for curve fitting.

Experiment [4] shares this target. As to the kind of experiment: Biacore, d0; TfR1 species not stated. In general terms: Surface plasmon resonance follows binding to a sensor surface in real time, without labels.
For experiment [5] the target is unchanged. In words: Biacore, d25; TfR1 species not stated.
Experiment [6] shares this target. As to the kind of experiment: kinetic analysis (Biacore), Table 7; TfR1 species not stated.
For experiment [7] the target is unchanged. In words: Table 14, unconjugated Fab, d9 (after 9 days at 40 C); method not named.
Experiment [8] has as its target T2, recombinant cynomolgus monkey (Macaca …). Described as above.
The target of experiment [9] is T1, recombinant human TfR1 (transferrin …). In words: ELISA, recombinant TfR1 coated, unconjugated Fab (row 'Fab binding affinity ELISA'). For orientation: In an ELISA, binding on a coated surface is turned into a signal by an enzyme label.
The target of experiment [10] is T2, recombinant cynomolgus monkey (Macaca …). The experiment is described as above.
Experiment [11] has as its target T1, recombinant human TfR1 (transferrin …). As to the kind of experiment: Table 14, unconjugated Fab, d0; method not named (values equal ELISA row of Table 13).
Experiment [12] concerns the target T2, recombinant cynomolgus monkey (Macaca …). Described as above.
Experiment [13] addresses T1, recombinant human TfR1 (transferrin …). As to the kind of experiment: Table 14, Fab-ASO300 conjugate; method not named.
Experiment [14] deals with T2, recombinant cynomolgus monkey (Macaca …). In words: Table 14, Fab-ASO300 conjugate; method not named.
Experiment [15] concerns the target T1, recombinant human TfR1 (transferrin …). In words: ELISA, recombinant TfR1 coated, Fab-ASO300 conjugate (row 'Conjugate binding affinity ELISA').
In experiment [16] the target is T2, recombinant cynomolgus monkey (Macaca …). The description is as above.

Usually Kd stands for a measure of binding affinity in units of concentration. The kon is the rate constant with which the complex forms. By koff is commonly meant the rate constant with which the complex falls apart. In general, EC50 refers to the concentration needed to bring the measured effect to its halfway point.

Positions count from the first letter of the chain named. Names and notes keep the numbering of the source.

B1: 3-A4 mouse monoclonal anti-TfR antibody (antibody, V domains shown)
VH: EVQLQQSGAELVRPGASVKLSCTASGFNIKDDYMYWVKQRPEQGLEWIGWIDPENGDTEYASKFQDKATVTADTSSNTAYLQLSSLTSEDTAVYYCTLWLRRGLDYWGQGTSVTVSS
VL: DIVMTQAAPSVPVTPGESVSISCRSSKSLLHSNGYTYLFWFLQRPGQSPQLLIYRMSNLASGVPDRFSGSGSGTAFTLRISRVEAEDVGVYYCMQHLEYPFTFGGGTKLEIK
notes: Mouse monoclonal IgG; also called 3-A04
As to B1, the Kd in experiment [1] stood at 0.436 nM; in experiment [2] it was 2.32 nM; in [3], 0.436 nM. Moreover, the kon in experiment [3] was found to be 447000 M⁻¹ s⁻¹.

B2: 3-M12 mouse monoclonal anti-TfR antibody (antibody, V domains shown)
VH: DVQLQESGPGLVKPSQSLSLTCSVTGYSITSGYYWNWIRQFPGNKLEWMGYITFDGANNYNPSLKNRISITRDTSKNQFFLKLTSVTTEDTATYYCTRSSYDYDVLDYWGQGTTLTVSS
VL: DIQMTQTTSSLSASLGDRVTISCRASQDISNFLNWYQQRPDGTVKLLIYYTSRLHSGVPSRFSGSGSGTDFSLTVSNLEQEDIATYFCQQGHTLPYTFGGGTKLEIK
notes: Mouse monoclonal IgG
Regarding B2, the Kd in experiment [1] was 0.768 nM; in [2], 5.18 nM; in experiment [3], 0.768 nM. The kon in [3] stood at 166000 M⁻¹ s⁻¹.

B3: humanized anti-TfR Fab 3M12 VH3/Vκ3 (Fab, V domains shown)
VH: QVQLQESGPGLVKPSQTLSLTCSVTGYSITSGYYWNWIRQPPGKGLEWMGYITFDGANNYNPSLKNRVSISRDTSKNQFSLKLSSVTAEDTATYYCTRSSYDYDVLDYWGQGTTVTVSS
VL: DIQMTQSPSSLSASVGDRVTITCRASQDISNFLNWYQQKPGQPVKLLIYYTSRLHSGVPSRFSGSGSGTDFTLTISSLQPEDFATYYCQQGHTLPYTFGQGTKLEIKR
notes: also called 3M12 (VH3/Vk3)
As to B3, the figures for the dissociation constant Kd in experiment [4], in [5] and in experiment [6] were 0.345 nM, 0.515 nM and 0.345 nM, respectively. In [6], the koff was 8.34e-05 s⁻¹. In experiment [6], the association rate constant (kon) was determined as 242000 M⁻¹ s⁻¹. For the same molecule, the Binding affinity was 1.49 nM in experiment [7], 15.6 nM in experiment [8], 0.6 nM in experiment [11] and 4.7 nM in experiment [12]. In addition, the results for the EC50 in experiment [9] and in [10] were 0.6 nM and 4.7 nM, respectively.

B4: humanized anti-TfR Fab 3M12 VH4/Vκ2 (Fab, V domains shown)
VH: B3 VH with S23T, M49I
VL: B3 VL with Y87F
notes: also called 3M12 (VH4/Vk2)
Regarding B4, the Kd is 0.396 nM in experiment [4], 0.51 nM in [5] and 0.396 nM in [6]. In addition, in experiment [6], the koff stood at 9.98e-05 s⁻¹. In experiment [6], the kon amounted to 252000 M⁻¹ s⁻¹. Further, the Binding affinity in [7] stood at 0.5 nM; in experiment [8] it was 5.01 nM; in [11] it was 0.4 nM; in experiment [12] it was 1.4 nM. In addition, the EC50 came out at 0.4 nM in [9] and 1.4 nM in experiment [10].

B5: conjugate of humanized anti-TfR Fab 3A4 VH3/Vκ4 with DMPK-targeting oligonucleotide ASO300 (Fab, V domains shown)
VH: EVQLVQSGSELKKPGASVKVSCTASGFNIKDDYMYWVRQPPGKGLEWIGWIDPENGDTEYASKFQDRVTVTADTSTNTAYMELSSLRSEDTAVYYCTLWLRRGLDYWGQGTLVTVSS
VL: DIVMTQSPLSLPVTPGEPASISCRSSKSLLHSNGYTYLFWFQQRPGQSPRLLIYRMSNLASGVPDRFSGSGSGTDFTLKISRVEAEDVGVYYCMQHLEYPFTFGGGTKVEIKR
modifications: oligonucleotide ASO300 conjugated to the Fab via linker; residue and chain not stated
notes: also called 3A4 (VH3/Vk4) conjugate
For B5, the entries for the “DMPK oligo conjugate binding” value in [13] and in experiment [14] were 2.84 nM and 7.59 nM, respectively. For the same molecule, the EC50 was 2.8 nM in [15] and 7.6 nM in experiment [16].

B6: humanized anti-TfR Fab 3A4 VH3/Vκ4 (Fab, V domains shown)
VH: B5 VH
VL: B5 VL
notes: also called 3A4 (VH3/Vk4)
With B6, the values for the Kd in experiment [4], in experiment [5] and in experiment [6] were 1.5 nM, 1.35 nM and 1.5 nM, respectively. Also, the Binding affinity in [7] came to 0.46 nM; in [8], 878 nM; in experiment [11], 1.5 nM; in experiment [12], 122 nM. The EC50 was 1.5 nM in experiment [9] and 122 nM in [10].

B7: conjugate of humanized anti-TfR Fab 5H12 VH5 (C33D)/Vκ4 with DMPK-targeting oligonucleotide ASO300 (Fab, V domains shown)
VH: QVQLVQSGAEVKKPGASVKVSCKASGYSFTDYDINWVRQAPGQGLEWMGWIYPGSGNTRYSERFKGRVTITRDTSASTAYMELSSLRSEDTAVYYCAREDYYPYHGMDYWGQGTLVTVSS
VL: DIVMTQSPDSLAVSLGERATINCRASESVDGYDNSFMHWYQQKPGQPPKLLIFRASNLESGVPDRFSGSGSGTDFTLTISSLQAEDVAVYYCQQSSEDPWTFGQGTKLEIKR
modifications: oligonucleotide ASO300 conjugated to the Fab via linker; residue and chain not stated
notes: also called 5H12 (VH5-C33D/Vk4) conjugate
With B7, the results for the “DMPK oligo conjugate binding” value in experiment [13] and in experiment [14] were 110 nM and 10.2 nM, respectively. Also, the EC50 in [15] stood at 110 nM; in experiment [16], 10.2 nM.

B8: conjugate of humanized anti-TfR Fab 5H12 VH5 (C33Y)/Vκ3 with DMPK-targeting oligonucleotide ASO300 (Fab, V domains shown)
VH: B7 VH with D33Y
VL: B7 VL with M4L, G72R
modifications: oligonucleotide ASO300 conjugated to the Fab via linker; residue and chain not stated
notes: also called 5H12 (VH5-C33Y/Vk3) conjugate
For B8, the EC50 in [15] was determined as 33.4 nM; in experiment [16], 2.3 nM.

B9: humanized anti-TfR Fab 5H12 VH5 (C33D)/Vκ4 (Fab, V domains shown)
VH: B7 VH
VL: B7 VL
notes: also called 5H12 (VH5-C33D/Vk4)
Take B9: the Kd was 0.991 nM in experiment [4], 3.01 nM in experiment [5] and 0.991 nM in experiment [6]. Further, in experiment [6], the koff came to 0.000672 s⁻¹. Besides, in [6], the kon came to 678000 M⁻¹ s⁻¹. Also, the Binding affinity in experiment [7] was 92.3 nM; in experiment [8], 0.63 nM; in experiment [11] it was 6 nM; in experiment [12], 3.5 nM. The EC50 was found to be 6 nM in [9] and 3.5 nM in experiment [10].
